Source: patent publication EP0702725B1

Legend:
[1] = molecular target: flow-through fraction from 110BH3-Sepharose of the culture supernatant of anti-CD3-stimulated AC5 cells; test: ELISA on wells coated with the flow-through fraction from 110BH3-Sepharose; biotinylated 388F1, amplification system
[2] = molecular target: recombinant human GIF secreted by COS-1 cells co-transfected with SRα-hcGIF and SRα-hfurin (human); test: absorption on 388F1-Sepharose, acid elution; 12H5 GIF bioassay
[3] = molecular target: PLA2-binding GIF (antigen-binding GIF) from anti-CD3-stimulated human T-cell hybridoma AC5 (human)
[4] = molecular target: bovine serum albumin (BSA) (bovine) (UniProt P02769); test: same ELISA, control wells
[5] = molecular target: recombinant human GIF secreted by COS-1 cells co-transfected with SRα-hcGIF and SRα-hfurin (human); test: absorption on 388F1-Sepharose; titration of GIF bioactivity in the fractions

Chain of UniProt P02769 (P02769 25-607 limits assumed): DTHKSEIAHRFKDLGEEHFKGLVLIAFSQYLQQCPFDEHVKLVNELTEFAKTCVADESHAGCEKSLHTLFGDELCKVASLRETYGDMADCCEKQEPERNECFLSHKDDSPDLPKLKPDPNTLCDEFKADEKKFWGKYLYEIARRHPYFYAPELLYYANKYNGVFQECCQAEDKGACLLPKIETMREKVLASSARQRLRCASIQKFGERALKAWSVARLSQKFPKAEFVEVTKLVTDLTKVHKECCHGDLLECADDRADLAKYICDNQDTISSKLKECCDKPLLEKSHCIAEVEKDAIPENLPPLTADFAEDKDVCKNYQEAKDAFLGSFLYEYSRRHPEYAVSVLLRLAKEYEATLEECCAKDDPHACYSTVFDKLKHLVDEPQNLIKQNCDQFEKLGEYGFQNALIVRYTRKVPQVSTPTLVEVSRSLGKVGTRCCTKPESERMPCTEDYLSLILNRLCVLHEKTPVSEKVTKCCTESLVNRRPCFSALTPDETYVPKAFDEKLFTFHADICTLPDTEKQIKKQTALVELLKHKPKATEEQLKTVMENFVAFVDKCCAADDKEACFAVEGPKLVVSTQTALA

Substance: monoclonal anti-human GIF antibody 388F1 (ATCC HB 10472)
- ELISA signal (absorption at 490 nm) (absorbance 490 nm) [1]: 0.36
- GIF activity recovered in the acid eluate fraction [2]: > 75%
- ELISA signal (absorption at 490 nm) (absorbance 490 nm) [3]: 0.86
- ELISA control (nonspecific binding to BSA-coated wells, OD 410) [4]: 0.1 OD 410
- GIF activity of the flow-through relative to the eluate fraction [5]: < 0.1 fold
